The text below walks through data of FireProtDB (doi:10.1016/0022-2836(91)90725-l).

For the data set the following is noted: Bacillus amyloliquefaciens; pH 6.3; 25 °C; Urea; Fluorescence; MES 1.00 M; NaCl 613 mM; reversible: yes; whole UniProt chain shown.

B1: Ribonuclease wild type, P00648 (protein)
chain: MMKMEGIALKKRLSWISVCLLVLVSAAGMLFSTAAKTETSSHKAHTEAQVINTFDGVADYLQTYHKLPDNYITKSEAQALGWVASKGNLADVAPGKSIGGDIFSNREGKLPGKSGRTWREADINYTSGFRNSDRILYSSDWLIYKTTDHYQTFTKIR
As to B1, the denaturant m value is 2.22 kcal/mol/M, the “denaturant midpoint (higher = more stable)” value came to 4.57 M and the unfolding free energy was determined as 42.5 kJ/mol.
